Measurements: patent publication US7507412B2, “Glycoprotein VI fusion proteins” (Merck Patent GmbH, priority 2001, dated 2009)

T1: collagen type III (Homo sapiens, UniProt P02461)
T1 sequence (P02461 154-1221 limits assumed): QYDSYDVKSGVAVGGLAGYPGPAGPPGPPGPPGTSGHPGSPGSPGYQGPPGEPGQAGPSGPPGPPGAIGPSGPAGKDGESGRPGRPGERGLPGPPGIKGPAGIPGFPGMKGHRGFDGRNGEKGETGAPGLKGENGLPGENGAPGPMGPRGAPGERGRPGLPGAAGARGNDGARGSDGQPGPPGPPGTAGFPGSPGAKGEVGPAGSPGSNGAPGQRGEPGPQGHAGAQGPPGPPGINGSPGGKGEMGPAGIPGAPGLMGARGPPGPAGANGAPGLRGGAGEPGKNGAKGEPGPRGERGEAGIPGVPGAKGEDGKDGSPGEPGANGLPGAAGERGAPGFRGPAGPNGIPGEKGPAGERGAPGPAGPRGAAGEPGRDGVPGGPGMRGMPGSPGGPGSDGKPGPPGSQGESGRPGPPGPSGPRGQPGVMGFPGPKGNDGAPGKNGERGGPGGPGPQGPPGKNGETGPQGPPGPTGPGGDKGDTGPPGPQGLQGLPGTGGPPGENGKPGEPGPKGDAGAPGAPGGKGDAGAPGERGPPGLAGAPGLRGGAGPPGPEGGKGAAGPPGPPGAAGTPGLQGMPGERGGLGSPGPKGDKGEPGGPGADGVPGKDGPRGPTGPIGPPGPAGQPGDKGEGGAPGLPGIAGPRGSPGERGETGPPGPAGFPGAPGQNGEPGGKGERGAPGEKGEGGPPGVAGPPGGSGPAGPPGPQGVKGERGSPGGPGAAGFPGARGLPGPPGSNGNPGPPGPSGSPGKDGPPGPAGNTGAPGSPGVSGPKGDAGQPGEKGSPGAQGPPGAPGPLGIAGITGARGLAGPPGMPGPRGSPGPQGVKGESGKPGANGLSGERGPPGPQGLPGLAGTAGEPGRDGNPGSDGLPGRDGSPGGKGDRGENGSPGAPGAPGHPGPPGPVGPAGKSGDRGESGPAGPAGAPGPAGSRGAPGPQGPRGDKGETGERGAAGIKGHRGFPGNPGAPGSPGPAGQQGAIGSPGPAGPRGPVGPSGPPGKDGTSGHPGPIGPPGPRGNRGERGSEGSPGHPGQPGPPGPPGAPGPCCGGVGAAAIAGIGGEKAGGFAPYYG

T2: human collagen type III (Sigma) (human, UniProt P02461 154-1221, limits assumed)
T2 construct: Purified natural collagen immobilised on the chip (331 RU); also called Collagen type III (human)
T2 sequence (looked up): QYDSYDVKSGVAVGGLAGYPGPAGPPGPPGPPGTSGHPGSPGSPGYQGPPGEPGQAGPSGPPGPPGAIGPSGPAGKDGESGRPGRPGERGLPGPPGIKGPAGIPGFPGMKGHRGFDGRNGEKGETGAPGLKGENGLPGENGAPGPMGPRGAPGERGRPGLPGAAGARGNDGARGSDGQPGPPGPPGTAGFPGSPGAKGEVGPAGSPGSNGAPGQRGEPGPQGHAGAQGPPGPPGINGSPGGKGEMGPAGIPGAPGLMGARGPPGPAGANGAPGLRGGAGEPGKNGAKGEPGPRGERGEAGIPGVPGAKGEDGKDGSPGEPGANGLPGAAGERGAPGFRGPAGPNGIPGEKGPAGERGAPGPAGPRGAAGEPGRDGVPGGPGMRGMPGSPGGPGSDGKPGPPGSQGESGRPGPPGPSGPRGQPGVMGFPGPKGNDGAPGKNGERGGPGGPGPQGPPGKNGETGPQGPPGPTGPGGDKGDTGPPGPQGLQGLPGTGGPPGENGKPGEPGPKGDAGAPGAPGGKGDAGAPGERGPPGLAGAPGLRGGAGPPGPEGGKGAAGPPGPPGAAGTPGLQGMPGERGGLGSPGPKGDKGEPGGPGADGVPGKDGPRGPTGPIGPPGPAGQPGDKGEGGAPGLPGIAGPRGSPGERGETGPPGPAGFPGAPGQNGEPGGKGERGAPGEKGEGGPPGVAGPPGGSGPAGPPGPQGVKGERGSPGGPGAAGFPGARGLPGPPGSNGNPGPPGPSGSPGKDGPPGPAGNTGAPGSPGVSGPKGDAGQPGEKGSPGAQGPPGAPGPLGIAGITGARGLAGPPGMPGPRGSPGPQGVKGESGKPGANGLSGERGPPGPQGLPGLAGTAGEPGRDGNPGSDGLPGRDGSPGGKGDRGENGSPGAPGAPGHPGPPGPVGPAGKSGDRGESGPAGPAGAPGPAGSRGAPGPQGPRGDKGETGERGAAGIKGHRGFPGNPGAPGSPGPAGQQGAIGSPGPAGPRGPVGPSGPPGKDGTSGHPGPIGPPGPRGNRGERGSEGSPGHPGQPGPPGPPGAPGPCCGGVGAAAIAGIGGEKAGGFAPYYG


Legend:
collagen type III [1] = target: T1, collagen type III; test: ELISA: GPVI-Fc binding at collagen-coated microtiter plates; conditions: HEPES binding buffer pH 7.4, FIG. 4
Source text: GPVI-Fc, solved in HEPES buffer (pH 7.4) containing 1% BSA and 0.05% Tween 20, was allowed to bind at collagen-coated microtiter plates. The amount of collagen-bound GPVI-Fc was calorimetrically detected by an anti-Fc antibody conjugated with horse radish peroxidase. Non-specific binding was estimated by a collagen non-specific Fc fusion protein applied instead of GPVI-Fc. Data shown as mean (n=2).
In principle, collagen coated microtiter plates are used as a matrix and GPVI-Fc as the ligand. The detection of bound GPVI-Fc is carried out by an anti-Fc antibody conjugated with horse radish peroxidase which binds specifically at the Fc moiety. After addition of peroxidase substrate, the amount of bound GPVI-Fc is reflected by an increase in absorption.
The polystyrol microtiterplates are coated with 50 μl of 20 μg/ml collagen type III suspended in TRIS buffered saline pH 8.0 for 12 h. Non-bound collagen is removed by washing. Afterwards, free protein binding sites are blocked by 5% (w/v) milk powder and 0.05% (v/v) Tween® 20 both solved in HEPES buffer (pH 7.4).
GPVI-Fc, in a concentration range of 0.1-100 nM, is solved in binding buffer (HEPES, 1% (w/v) bovine serum albumin, 0.05% (v/v) Tween® 20, pH 7.4). […]
Fifty μl of GPVI-Fc solution are given into each well. […] Finally, the amount of bound GPVI-Fc is calorimetrically detected by the peroxidase reaction.

human platelets = test: Collagen-induced platelet aggregation, determined turbidometrically; format: cell-based; conditions: GPVI-Fc added prior to collagen, 10 μg/ml collagen, FIG. 6
Protocol: Platelet aggregation is turbidometrically determined after the addition of 10 μg/ml collagen (control) and in the presence of different GPVI-Fc concentrations. Data are shown as means (n=4).
The therapeutic relevance for GPVI-antagonists to prevent collagen-induced thromboembolic complications is shown by a GPVI-Fc titration curve (FIG. 6). Briefly, stimulation of human platelets with collagen induces an aggregation within minutes. […] Therefore, collagen trapped by GPVI-Fc is no longer able to induce an aggregation of platelets. Considering the therapeutic relevance of GPVI receptor antagonism the following conclusion can be drawn from the results presented above: • (i) GPVI-Fc itself can be used as a drug to prevent collagen-induced thromboembolic complications. • (ii) Antagonism of the platelet GPVI receptor by low molecular drugs should prevent the collagen-induced aggregation.

collagen type III [2] = target: T1, collagen type III; test: Binding of GPVI to collagen type III measured by surface plasmon resonance (BIAcore 3000); set-up: purchased Sigma
Source text: The known interaction of GPVI to Collagen was used to develop a binding test with the BIAcore 3000. The binding of proteins to immobilized ligands can be monitored using the phenomenon of surface plasmon resonance (SPR). This technique can give results regarding the affinity and kinetics of interacting molecules in solution.
In this assay human collagen type III was immobilized on the sensor surface as stated in the methods and purified soluble GPVI was passed over the collagen surface.
(§1) Protein interactions were identified and characterized by SPR technology using the BIAcore® 3000 instrument (BIAcore®, Freiburg, Germany) and methodology (Johnsson and Lindqvist, 1992; Johnsson et al., 1991). Coupling reagents were used according to protocols developed by the supplier. Coupling to the CM 5 sensor chip was done via activated carboxylate groups to free amine groups of human collagen type III (Sigma®). The pH-scouting and the coupling chemistry was performed under standard conditions (Johnsson and Lindqvist, 1992; Johnsson et al., 1991). For coupling the collagen was diluted to 0.125 μg/ml into 10 mM acetate buffer pH 4.5, resulting in 331 RU immobilized material.
(§2) For the binding experiments purified recombinant glycoprotein VI was used. The protein was diluted into 20 mM Hepes, pH 7.4, 150 mM NaCl, 5 mM EDTA, 0.005% Tween® 20. All binding experiments were performed at 25° C. and performed in duplicates.
The titration with glycoprotein VI was performed at concentrations ranging from 0.2 μg/ml to 50 μg/ml.
Total protein concentrations were determined by the BCA method (Pierce) The kinetic of the interaction of GPVI with collagen can be observed in the sensorgram seen in FIG. 7. In the experiment increasing concentrations of purified GPVI were passed over the collagen type III surface.

[3] = target: T2, human collagen type III (Sigma); test: SPR equilibrium analysis, assuming 75000 Da and fully active protein
Protocol: as §1, with “µg/ml” for “μg/ml”
as §2

[4] = target: T2, human collagen type III (Sigma); test: SPR, BIAcore 3000, collagen type III immobilised, GPVI in solution, 25 C
Protocol: as §1, with “µg/ml” for “μg/ml”
as §2

concentration at which collagen-binding sites are completely occupied (saturation curve) (collagen type III [1]) | dissociation rate constant from the collagen surface (collagen type III [2]; 25° C.) [s⁻¹] | time until binding reaches saturation (collagen type III [2]; 25° C., GPVI 0.2-50 μg/ml) | half maximal concentration of saturation for the GPVI/collagen interaction (collagen type III [2]; equilibrium binding signal, non linear fit, 1:1 binding model, FIG. 8) [µg/mL] | Kd [3] [nM] | koff [4] [s⁻¹] | Molecule | suppression of collagen-induced platelet aggregation (human platelets)
above 100 nM |  |  |  |  |  | GPVI-Fc: Fusion of extracellular part of GPVI (aa 21 to 269), Cys-Gly-Arg linker and Fc of IgG1, encoded in KL74A | concentration-dependent reduction of platelet-aggregation
 | 0.003 | about 200 seconds | 9 | ~120 | 0.003 | purified recombinant glycoprotein VI (receptor, UniProt Q9HCN6 21-269, looked up, also called GPVI; purified soluble GPVI) QSGPLPKPSLQALPSSLVPLEKPVTLRCQGPPGVDLYRLEKLSSSRYQDQAVLFIPAMKRSLAGRYRCSYQNGSLWSLPSDQLELVATGVFAKPSLSAQPGPAVSSGGDVTLQCQTRYGFDQFALYKEGDPAPYKNPERWYRASFPIITVTAAHSGTYRCYSFSSRDPYLWSAPSDPLELVVTGTSVTPSRLPTEPPSPVAEFSEATAELTVSFTNEVFTTETSRSITASPKESDSPAGPARQYYTKGN | 
